Where two headings read alike, the source gives them in different places.
Legend:
[1] = target: T1, human CD137, cell-surface (human, UniProt Q07011 24-255); assay: flow cytometry on DO11.10.hCD137
T1 construct: over-expressed on DO11.10 or HEK cells or endogenous on primary T cells, as named under assay; also called DO11.10.hCD137; HEK.FRT.luc.hCD137
Procedure: Non-specific binding was also assessed by testing binding to DO11.10 cells lacking CD137 expression.
Briefly, DO11.10, DO11.10.hCD137 or DO11.10.cCD137 suspensions were prepared in FACS buffer (DPBS containing (Gibco, 14190-094) containing 0.5% BSA (Sigma, A7906)) and seeded at 1×10⁵ cell/well in 100 μl in round bottomed 96-well plates (VWR, 734-1797). […] The washed cells were resuspended in the diluted antibody mixture, incubated at 4° C. for 30 minutes, and then washed once in FACS buffer. […] Dead cells were excluded and the fluorescence in the APC channel (638 nm 660/20) was measured. The geometric mean fluorescence intensity (GMFI) values were plotted vs the log concentration of antibody and the resulting curves were fitted using the log (agonist) vs response equation in GraphPad Prism.

[2] = target: T2, human PD-L1, cell-surface (human, UniProt Q9NZQ7 19-290); assay: cell-based or functional assay
[3] = target: T3, cynomolgus CD137, cell-surface (cynomolgus, UniProt Q07011 24-255 (human entry)); assay: cell-based or functional assay
T3 chain: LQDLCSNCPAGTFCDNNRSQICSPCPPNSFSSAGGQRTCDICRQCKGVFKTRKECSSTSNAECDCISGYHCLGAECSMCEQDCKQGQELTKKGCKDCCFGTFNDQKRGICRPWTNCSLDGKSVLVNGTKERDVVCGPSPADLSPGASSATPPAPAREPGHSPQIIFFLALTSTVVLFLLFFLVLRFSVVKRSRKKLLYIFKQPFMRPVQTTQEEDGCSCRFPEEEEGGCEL

[4] = target: T2, human PD-L1, cell-surface; assay: cell-based or functional assay; remark: listed apart in the source
[5] = target: T2, human PD-L1, cell-surface; assay: cell-based or functional assay; remark: listed apart in the source
[6] = target: T4, biotinylated hPD-L1-Avi-His (Acro Biosystems, PD1-H82E5) (human, UniProt Q9NZQ7 19-238, biotinylated); assay: SPR, mAb^2 captured on Protein A chip, antigen in flow
T4 construct: bought; also called Human PD-L1-His; not shown: Avi and His tags of the bought product
Procedure: (§1) Briefly, the anti-human CD137/PD-L1 mAb², diluted in HBS-EP buffer (GE Healthcare, BR100188) at 2 μg/ml, were injected individually on flows cell 2, 3 and 4 of a Protein A chip (GE Healthcare, 29127556) at 30 μl/min to achieve a final response of approximately 110 RU. Two different recombinant human PD-L1 antigens were used i.e. hPD-L1-His-Avi (see Example 1.3 for antigen details) and biotinylated hPD-L1-Avi-His (Acrobiosystems, PD-1-H82E5). Human and cynomolgus PD-L1-His (Acrobiosystems, PD-1-C52H4) antigens, diluted in HBS-EP buffer, were injected on flow cell 1, 2, 3 or 4 as appropriate at a concentration range of 81 nM to 0.037 nM with 3-fold dilutions for 4 min at 75 μl/min and then allowed to dissociate in buffer for 10 min. Regeneration was achieved by injecting 10 mM glycine-HCL pH1.5 (GE Healthcare, Human Antibody Capture Kit, BR00356) for 30 sec at a rate of 30 μl/min. Subtracted data (flow cell 2−flow cell 1, flow cell 3−flow cell 1, or flow cell 4−flow cell 1) were analysed using BIAevaluation 3.2 Software (GE Healthcare) to identify binding using the model 1:1 binding with mass transfer, with refractive index (RI) constant 0.

[7] = target: T5, cPD-L1-His (Acro Biosystems, PD1-C52H4) (cynomolgus, UniProt Q9NZQ7 19-238 (human entry)); assay: as above
T5 construct: bought; also called Cyno PD-L1-His; Cynomolgus PD-L1-His; not shown: His tag of the bought product
Procedure: as §1

[8] = target: T2, human PD-L1, cell-surface; assay: flow cytometry on activated primary human CD4+ T cells (carry PD-L1 and CD137); activated primary human CD4+ T cells (carry PD-L1 and little CD137)
Procedure: CD137 is rapidly expressed to high levels on activated CD8⁺ T cells and also on activated CD4⁺ T cells with lower levels (Xue-Zhong Yu et al, 2013), therefore Pan T cells were stimulated for 24 hours using Dynabeads™ Human T-Activator CD3/CD28 beads (Thermo, 11132D) according to manufacturer's instructions.
Dead cells were excluded and the fluorescence in the APC channel (638 nm 660/20) was measured to show test antibody binding. The geometric Mean Fluorescence Intensity (GMFI) values were plotted vs the log concentration of antibody and the resulting curves were fitted using the log (agonist) vs response equation in GraphPad Prism.

[9] = target: T1, human CD137, cell-surface; assay: cell-based or functional assay

T2 sequence (Q9NZQ7 19-290): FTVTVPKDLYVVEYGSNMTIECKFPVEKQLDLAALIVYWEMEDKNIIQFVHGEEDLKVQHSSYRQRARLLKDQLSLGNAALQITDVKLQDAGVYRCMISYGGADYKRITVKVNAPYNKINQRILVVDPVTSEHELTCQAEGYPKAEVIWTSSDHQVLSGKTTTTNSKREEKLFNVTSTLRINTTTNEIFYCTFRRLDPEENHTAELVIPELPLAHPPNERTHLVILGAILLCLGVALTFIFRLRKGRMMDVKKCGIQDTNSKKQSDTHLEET
T5 sequence (Q9NZQ7 other isoform, or with tags, fused parts or gaps): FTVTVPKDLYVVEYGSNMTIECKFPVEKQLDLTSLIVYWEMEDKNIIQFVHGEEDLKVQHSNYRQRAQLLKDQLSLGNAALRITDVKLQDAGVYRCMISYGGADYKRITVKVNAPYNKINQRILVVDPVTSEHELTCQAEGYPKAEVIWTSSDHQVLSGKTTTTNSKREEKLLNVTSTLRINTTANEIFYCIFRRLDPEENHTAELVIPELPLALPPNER
T4 sequence (Q9NZQ7 19-238): as the sequence (Q9NZQ7 other isoform, or with tags, fused parts or gaps) above, with T33A, S34A, N62S, Q68R, R82Q, L173F, A185T, I192T, L215H counted along it

B1: FS22-172-003-AA/E12v2 (bispecific antibody, human IgG1, kappa, L234A L235A)
heavy: EVQLVQSGAEVKRPGASVKVSCKASGYPFTSYGISWVRQAPGQGLEWMGWISAYSGGTNYAQKLQGRVTMTTDTSTSTAYMELRSLRSDDTAVYYCARDLFPTIFGVSYYYYWGQGTLVTVSSASTKGPSVFPLAPSSKSTSGGTAALGCLVKDYFPEPVTVSWNSGALTSGVHTFPAVLQSSGLYSLSSVVTVPSSSLGTQTYICNVNHKPSNTKVDKKVEPKSCDKTHTCPPCPAPEAAGGPSVFLFPPKPKDTLMISRTPEVTCVVVDVSHEDPEVKFNWYVDGVEVHNAKTKPREEQYNSTYRVVSVLTVLHQDWLNGKEYKCKVSNKALPAPIEKTISKAKGQPREPQVYTLPPSRDELPYIIPPYNQVSLTCLVKGFYPSDIAVEWESNGQPENNYKTTPPVLDSDGSFFLYSKLTVGADRWLEGNVFSCSVMHEALHNHYTQKSLSLSPG
light: DIQMTQSPSTLSASVRDRVIITCRASQSIGNRLAWYQHKPGKAPKLLIYEASTSETGVPSRFSGSGSGTDFTLTISSLQPEDFATYYCQQSYSTPYTFGQGTKLEIKRTVAAPSVFIFPPSDEQLKSGTASVVCLLNNFYPREAKVQWKVDNALQSGNSQESVTEQDSKDSTYSLSSTLTLSKADYEKHKVYACEVTHQGLSSPVTKSFNRGEC
notes: PD-L1 site in the Fab, CD137 site in the CH3, LALA; also called anti-human CD137/PD-L1 mAb^2
- EC50 [1]: 6200 pM
- EC50 (nM), IFN-γ release, human MLR [2]: 0.07 nM
- EC50 (nM) (crosslinked), mIL-2 release, DO11.10.cCD137 with HEK.cyPD-L1 [3]: 0.06 nM
- Emax (pg/ml) (crosslinked), mIL-2 release, DO11.10.cCD137 with HEK.cyPD-L1 [3]: 11300 pg/mL
- EC50 (nM), mouse IL-2 release, DO11.10 / LK35.2 PD-L1 blockade assay [4]: 1.27 nM
- EC50 (nM), IFN-γ release, human MLR [5]: 0.02 nM
- Emax (pg/ml), IFN-γ release, human MLR [5]: 2630 pg/mL
- Kd [6]: 190 pM
- Kd [7]: 360 pM
- EC50 [8]: 800 pM
- EC50 (nM), hIL-2 release, CD8+ T cells, donor 171115A, HEK.hPD-L1 XL [9]: 0.24 nM
- EC50 (nM), hIL-2 release, CD8+ T cells, donor 171115A, MDA-MB-231 XL [9]: 0.02 nM
- EC50 (nM), hIL-2 release, CD8+ T cells, donor 171115B, HEK.hPD-L1 XL [9]: 0.31 nM
- EC50 (nM), hIL-2 release, CD8+ T cells, donor 171115B, MDA-MB-231 XL [9]: 0.02 nM

Reference: patent US20250346679A1 (INVOX PHARMA, published 2025)
